US20220411514A1 (TRUEBINDING, published 2022)

Assays:
[1] = biological target: T1, Human Galectin-3 protein (Acro Biosystems, GA3-H5129) (human, UniProt P17931 2-250); experiment: ELISA, INSR binding to coated Gal3 with 3 ug/mL antibody
T1 construct: bought; also called Gal3-ECD-His; Gal3-His; not shown: linker-spaced 6-histidine tag

human Galectin-3 (Gal3) [2] = biological target: T2, human Galectin-3 (Gal3) (human, UniProt P17931 2-250, limits assumed); experiment: SPR Biacore T200, antibody captured, Gal3 analyte, 1:1 fit
T2 construct: also called hGal3; hGAL3
T2 sequence (P17931 2-250 limits assumed): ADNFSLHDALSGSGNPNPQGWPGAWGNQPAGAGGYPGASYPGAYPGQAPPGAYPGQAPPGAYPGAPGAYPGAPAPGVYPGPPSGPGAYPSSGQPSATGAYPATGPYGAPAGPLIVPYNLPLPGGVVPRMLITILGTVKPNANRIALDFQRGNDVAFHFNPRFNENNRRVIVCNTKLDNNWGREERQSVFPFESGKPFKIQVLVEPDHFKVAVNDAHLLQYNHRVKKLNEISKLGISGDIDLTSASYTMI

Peptide 5 of Gal3 = biological target: T3, Peptide 5 of Gal3 (human); experiment: peptide ELISA, antibody as hIgG4(S228P) at 5 ug/mL
T3 peptide: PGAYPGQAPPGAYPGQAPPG

Peptide 6 of Gal3 = biological target: T4, Peptide 6 of Gal3 (human); experiment: peptide ELISA, antibody as hIgG4(S228P) at 5 ug/mL
T4 peptide: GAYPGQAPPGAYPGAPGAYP

[3] = biological target: T1, Human Galectin-3 protein (Acro …); experiment: SPR sandwich binning, Carterra LSA
[4] = biological target: T5, His-enterokinase cleavage site (EK)-cynoGal3 (TrueBinding in-house antigen) (cynomolgus, UniProt A0A7N9CYL1 6-247); experiment: SPR Biacore T200, protocol of Example 9
T5 construct: also called His-EK-cynoGal3; cynomolgus Gal3; not shown: His tag and enterokinase cleavage site
T5 sequence (A0A7N9CYL1 entry or part of it): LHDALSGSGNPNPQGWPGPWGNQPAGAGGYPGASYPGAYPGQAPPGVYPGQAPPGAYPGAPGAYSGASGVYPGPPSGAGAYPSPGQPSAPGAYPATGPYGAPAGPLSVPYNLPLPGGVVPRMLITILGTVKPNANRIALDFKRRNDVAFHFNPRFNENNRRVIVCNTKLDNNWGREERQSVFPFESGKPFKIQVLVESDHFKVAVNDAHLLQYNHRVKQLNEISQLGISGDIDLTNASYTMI

human Galectin-3 (Gal3) [5] = biological target: T2, human Galectin-3 (Gal3); experiment: SPR Carterra LSA, protocol of Example 9
mouse Gal3 [6] = biological target: T6, mouse Gal3 (mouse, UniProt P16110 2-264, limits assumed); experiment: SPR Carterra LSA, antibody captured on Protein A/G, Gal3 analyte
T6 sequence (P16110 2-264 limits assumed): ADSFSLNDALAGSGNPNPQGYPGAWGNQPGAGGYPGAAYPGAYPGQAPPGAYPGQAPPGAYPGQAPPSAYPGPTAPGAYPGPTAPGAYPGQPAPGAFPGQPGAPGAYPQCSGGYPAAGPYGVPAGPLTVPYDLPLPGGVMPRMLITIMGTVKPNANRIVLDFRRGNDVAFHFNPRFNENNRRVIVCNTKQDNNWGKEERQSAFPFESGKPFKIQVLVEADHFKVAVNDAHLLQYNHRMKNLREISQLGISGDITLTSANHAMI

human Galectin-3 (Gal3) [7] = biological target: T2, human Galectin-3 (Gal3); experiment: as above
[8] = biological target: T5, His-enterokinase cleavage site …; experiment: SPR Biacore T200, antibody captured, 1:1 fit
mouse Gal3 [9] = biological target: T6, mouse Gal3; experiment: SPR Carterra LSA, protocol of Example 9
His-EK-ratGal3 = biological target: T7, His-EK-ratGal3 (rat, UniProt P08699 2-262); experiment: SPR Biacore T200, antibody captured by anti-human Fc, 1:1 fit
T7 construct: not shown: His tag and enterokinase cleavage site
T7 sequence (looked up): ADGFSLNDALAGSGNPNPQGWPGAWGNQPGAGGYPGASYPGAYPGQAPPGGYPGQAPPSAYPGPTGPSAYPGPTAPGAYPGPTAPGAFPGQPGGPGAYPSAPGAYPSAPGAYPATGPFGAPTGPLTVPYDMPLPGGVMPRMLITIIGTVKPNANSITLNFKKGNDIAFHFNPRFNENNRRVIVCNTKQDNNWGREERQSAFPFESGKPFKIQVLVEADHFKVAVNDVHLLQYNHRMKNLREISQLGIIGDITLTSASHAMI

human Galectin-3 (Gal3) [10] = biological target: T2, human Galectin-3 (Gal3); experiment: HDX-MS

T1 sequence (P17931 2-250): as the sequence (P17931 2-250 limits assumed) above

B1: 9H2.2H10 (antibody, V domains shown)
VH: QVQLQQPGAELVGPGSSVKLSCKASGYTFTNYWIHWVKQRPLQGLEWIGNIDPSDSETHYNQKFKDKATLTVDKSSSTAYMQLSSLTSEDSAVYYCARHGYYDYWGQGTTLTVSS
VL: DIVMTQSHKFMSTSVGDRVSITCKASQDVSTAVAWYQQKPGQSPKLLIYWASTRHTGVPDRFTGSGSGTDYTLTISSVQAEDLALYYCQQHYTTPLTFGAGTKLELKR
inhibition of Gal3-INSR binding, % [1]: ≤ 30%
Kd (human Galectin-3 (Gal3) [2]): 2.53 nM

B2: 12G5.D7 (antibody, V domains shown)
VH: QVQLKQSGAELVRPGASVKLSCKASGYTFTDYYINWVKQRPGQGLEWIARIYPGTGNTDYNEKFKGRATLTAEKSSSTAYMQLSSLTSEDSAVYFCARFAYYYGSGGYFDYWGHGTTLTVSS
VL: DILMTQSPSSMSVSLGDTVSITCHASQGINSNMGWLQQKPGKSFKGLIYHATNLEDGVPSRFSGSGSGADYSLTISSLESEDFADYYCVQYAQFPPTFGSGTKLEIK
inhibition of Gal3-INSR binding, % [1]: ≤ 30%
Kd (human Galectin-3 (Gal3) [2]): 1.9 nM

B3: 3B11.2G2 (antibody, V domains shown)
VH: QIQLVQSGPELKKPGETVKISCKTSGYKFKTYVMSWVKQAPGKALKWMGWINTYSGVPTYADDFKGRFAFSLETSASTAYLEIINLKNEDTATYFCARDGNYGDPMDYWGQGTSVTVSS
VL: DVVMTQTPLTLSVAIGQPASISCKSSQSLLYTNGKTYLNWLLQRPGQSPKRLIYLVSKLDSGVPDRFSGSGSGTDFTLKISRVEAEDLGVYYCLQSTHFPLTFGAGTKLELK
Gal3-INSR binding left, % of unblocked sample [1]: < 5%

B4: F847C.21H6 (antibody, V domains shown)
VH: QIQLVQSGPELKKPGETVKISCKASGYTFTIFGMNWVKQAPGKGLKWMGWVNTYTGEPTYADDFKGRFAFSLETSASTAYLQINNLKNEDTATYFCARGWFAYWGQGTLVTVSA
VL: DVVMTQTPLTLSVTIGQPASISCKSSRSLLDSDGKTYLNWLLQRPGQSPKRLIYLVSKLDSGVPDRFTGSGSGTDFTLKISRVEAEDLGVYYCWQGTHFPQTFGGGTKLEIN
binding result (Peptide 5 of Gal3): binds
binding result (Peptide 6 of Gal3): binds
binding result [3]: binds

B5: 15G7.2A7 (antibody, V domains shown)
VH: EVQLQQSGPELVKPGASVKISCKASGYTFTDYYMNWVKQSHGKSLEWIGDINPNNGGTNYNQKFKGKATLTVDKSSSTAYMELRSLTSEDSAVYYCTSGYGFPYWGQGTLVTVSA
VL: DIQMNQSPSSLSASLGDTISITCRASQNINIWLSWYQQKPGNIPQLLIYKASNLHTGVPSRFSGSGSGTDFTLTISSLQPEDIATYYCLQGQSYPLTFGAGTKLVMKR
inhibition of Gal3-INSR binding, % [1]: > 99%
Kd (human Galectin-3 (Gal3) [2]): 27.8 nM

B6: TB006 (antibody, V domains shown)
VH: QVQLVQSGAEVKKPGASVKVSCKASGYSFTNYYMHWVRQAPGQRLEWMGWIYPGSGNTNYNEKFQGRVTITADTSASTAYMELSSLRSEDTAVYYCSTAPGGFDVWGQGTTVTVSS
VL: DIVMTQTPLSLSVTPGQPASISCKSSKSLLHSDGITYLYWYLQKPGQSPQLLIYRMSNLASGVPDRFSGSGSGTDFTLKISRVEAEDVGVYYCAQMLEFPLTFGQGTKLEIKR
Kd [4]: 9.4 nM
Kd (human Galectin-3 (Gal3) [5]): 23 nM
Kd (mouse Gal3 [6]): 40000 nM
Kd (human Galectin-3 (Gal3) [7]): 8.9 nM
Kd [8]: 5.1 nM

B7: 13G4.2F8 (antibody, V domains shown)
VH: QVQLQQPGAELVKPGASVKLSCKASGYTFTSYWMHWVKQRPGQGLEWIGMIHPNSGSTDYNEKFKNKATLNVDKSSSTAYIQLSSLTSEDSAVYYCTRWGIYYYARDYWGQGTTLTVSS
VL: DIVMTQSQKFMSTSVGERVSITCKASQNVGTNVAWYQQKAGQSLELLIYGASNRHTGVPDRFTGSGSGTDFTLTITNVQSEDMTNYFCEQYSNFPLTFGAGTKLELKR
inhibition of Gal3-INSR binding, % [1]: ≤ 30%
Kd (human Galectin-3 (Gal3) [2]): 18.4 nM

B8: TB001 (antibody, V domains shown)
VH: QVQLVQSGSELKKPGASVKVSCKASGYTFTNYGMNWVRQAPGQGLKWMGWINTNTGEPTYVEEFTGRFVFSLETSVSTAYLQISSLKAEDTAVYFCAPYDNFFAYWGQGTTVTVSS
VL: DIVLTQSPLSLPVTPGEPASISCRSSKSLLYKDGKTYLNWFLQKPGQSPQLLIYLMSTHASGVPDRFSGSGSGTDFTLKISRVEAEDVGVYYCQQLVDYPLTFGGGTKLEIKR
Kd [4]: 34 nM
Kd (mouse Gal3 [9]): 4.2 nM
Kd (human Galectin-3 (Gal3) [5]): 9.7 nM
Kd (mouse Gal3 [6]): 2.3 nM
Kd (human Galectin-3 (Gal3) [7]): 3.6 nM
Kd (His-EK-ratGal3): 14 nM
Kd [8]: 8.9 nM

B9: 24D12.2H9 (antibody, V domains shown)
VH: QVQLKQSGPGLVQPSQSLSITCTVSGFSLTSYGVHWVRQAPGKGLEWLGVIWSGGSTDYNAAFMSRLSISKDNSKSQVFFKMNSLQADDTAIYYCAKSPDGYDVAWFGYWGQGTLVTVSA
VL: DIVMTQSHKFMSTSVGDRVSITCKASQDVRTAVAWYQQKPGQSPKLLIYWASTRHTGVPDRFTGSGSGTDFTLTLSNVQSEDLADYFCQQYSSYPWTFGGGTKLEIKR
inhibition of Gal3-INSR binding, % [1]: ≤ 30%
Kd (human Galectin-3 (Gal3) [2]): 4.13 nM

B10: Arg 228-Val 292 truncated form of GLUT4 (other)
chain: RYLYIIQNLEGPARKSLKRLTGWADVSGVLAELKDEKRKLERERPLSLLQLLGSRTHRQPLIIAV
binding result (human Galectin-3 (Gal3) [10]): binds

B11: 19B5.2E6 (antibody, V domains shown)
VH: QIQLVQSGPELKKPGETVKISCKASGYTFTTYAMSWVKQAPGKGLKWMGWINTYSGVPTYADDLKGRFAFSLETSASTAYLQINNLKNEDTATYFCARGPYAMDYWGQGTSVTVSS
VL: DIQMTQTTSSLSASLGDRVTISCSASQGINNYLNWYQQKPDGTVKLLIYYASSLHSGVPSRFSGSGSGTDYSLTISNLEPEDIATYYCQQYSQVPYTFGSGTKLEIKR
Gal3-INSR binding left, % of unblocked sample [1]: < 5%

B12: 23H9.2E4 (antibody, V domains shown)
VH: QIQLVQSGPELKKPGETVKISCKASGYTFTTYAMSWVKQAPGKGLKWMGWINTYSGVPTYADDLKGRFAFSLETSASTAYLQINNLKNEDTATYFCARGPYAMDYWGQGTSVTVSS
VL: DIQMTQTTSSLSASLGDRVTISCSASQGINNYLNWYQQKPDGTVKLLIYYASSLHSGVPSRFSGSGSGTDYSLTISNLEPEDIATYYCQQYSQVPYTFGSGTKLEIK
Gal3-INSR binding left, % of unblocked sample [1]: < 5%
